This note sets out measurements from patent publication US20250034219A1 (MOZZA FOODS, published 2025).

Data set [1] relates to T1, recombinant B. taurus β-casein expressed from pMOZ1066 (GY1 signal peptide, β-casein, FLAG tag, 6 histidine tag, HDEL peptide).
T1 sequence: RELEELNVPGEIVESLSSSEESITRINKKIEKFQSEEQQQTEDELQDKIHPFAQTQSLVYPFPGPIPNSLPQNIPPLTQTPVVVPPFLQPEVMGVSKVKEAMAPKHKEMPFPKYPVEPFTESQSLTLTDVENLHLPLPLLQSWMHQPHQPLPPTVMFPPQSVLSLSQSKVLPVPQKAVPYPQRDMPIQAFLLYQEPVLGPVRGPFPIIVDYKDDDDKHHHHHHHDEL

Data set [2] deals with T2, recombinant B. taurus αS1-casein expressed from pMOZ1066 (GY1 signal peptide, αS1-casein, FLAG tag, 6 histidine tag, HDEL peptide).
T2 sequence: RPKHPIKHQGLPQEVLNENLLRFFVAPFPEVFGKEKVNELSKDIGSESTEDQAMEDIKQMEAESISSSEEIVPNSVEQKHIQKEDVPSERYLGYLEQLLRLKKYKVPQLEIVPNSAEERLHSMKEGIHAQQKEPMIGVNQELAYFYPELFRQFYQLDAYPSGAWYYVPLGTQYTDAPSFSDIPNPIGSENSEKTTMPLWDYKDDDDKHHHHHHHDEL

Data set [3] addresses T3, recombinant B. taurus αS1-casein expressed from pMOZ1066 (GY1 signal peptide, αS1-casein, FLAG tag, 6 … (B. taurus)).
T3 construct: also called Alpha S1 casein; alphaS1 casein
T3 chain: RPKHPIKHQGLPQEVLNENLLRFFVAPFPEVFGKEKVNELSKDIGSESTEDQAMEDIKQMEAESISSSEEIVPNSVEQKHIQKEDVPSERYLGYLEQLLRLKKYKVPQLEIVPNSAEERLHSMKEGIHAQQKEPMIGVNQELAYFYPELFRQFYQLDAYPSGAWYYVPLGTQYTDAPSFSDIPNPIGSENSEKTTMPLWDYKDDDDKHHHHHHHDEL
The experiment in a line: TEM with FLAG immunogold labelling of soy embryos; micelle of αS1, β and κ casein in vivo.

Data set [4] concerns the target T4, recombinant B. taurus Beta Casein expressed from pMOZ702 (signal peptide, beta casein, HA tag, 6 histidine tag, HDEL peptide).
T4 chain: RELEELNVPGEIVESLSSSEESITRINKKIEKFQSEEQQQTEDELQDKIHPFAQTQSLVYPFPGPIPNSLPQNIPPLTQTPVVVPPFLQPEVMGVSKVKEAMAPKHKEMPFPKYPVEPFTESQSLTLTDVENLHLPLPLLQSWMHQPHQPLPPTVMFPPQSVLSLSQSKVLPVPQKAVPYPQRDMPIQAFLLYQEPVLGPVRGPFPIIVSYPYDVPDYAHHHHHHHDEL

Data set [5] relates to T5, recombinant B. taurus Beta Casein expressed from pMOZ702 (signal peptide, beta casein, HA tag, 6 histidine tag, HDEL peptide).
T5 sequence: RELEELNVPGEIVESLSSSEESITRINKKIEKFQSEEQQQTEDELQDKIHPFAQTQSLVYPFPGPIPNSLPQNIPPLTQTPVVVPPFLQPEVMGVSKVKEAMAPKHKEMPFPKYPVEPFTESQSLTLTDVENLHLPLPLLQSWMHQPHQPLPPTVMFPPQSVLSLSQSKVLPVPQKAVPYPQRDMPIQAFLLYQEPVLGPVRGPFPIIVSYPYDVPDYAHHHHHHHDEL
This is another data set of the same source.

In the case of “recombinant B. taurus Fam20C expressed from pMOZ1066”, the “phosphosite detected by mass spectrometry in 1066 milk” value in data set [1] was “only one phosphosite S50-p was detected to be phosphorylated in beta casein in both 1066 milk and raw milk (data not shown)”. In data set [2], the “phosphorylation by mass spectrometry in 1066 milk” value is on record as “Phosphorylation of alphaSI casein was not detected in 1066 milk (data not shown)”.

B1: recombinant B. taurus β-casein expressed from pMOZ1066 (GY1 signal peptide, β-casein, FLAG tag, 6 histidine tag, HDEL peptide) (other)
chain: RELEELNVPGEIVESLSSSEESITRINKKIEKFQSEEQQQTEDELQDKIHPFAQTQSLVYPFPGPIPNSLPQNIPPLTQTPVVVPPFLQPEVMGVSKVKEAMAPKHKEMPFPKYPVEPFTESQSLTLTDVENLHLPLPLLQSWMHQPHQPLPPTVMFPPQSVLSLSQSKVLPVPQKAVPYPQRDMPIQAFLLYQEPVLGPVRGPFPIIVDYKDDDDKHHHHHHHDEL
modifications: S50-p (phosphosite detected by mass spectrometry in 1066 milk; numbering not stated)
notes: Co-expressed with BtFam20C in soybean; also called Beta casein
Turning to B1, the binding result in data set [3] is recorded as “binds”.

B2: recombinant H. sapiens Fam20C expressed from pMOZ11 (protein)
chain: LDLLPRLERRGARPSGEPGCSCAQPAAEVAAPGWAQVRGRPGEPPAASSAAGDAGWPNKHTLRILQDFSSDPSSNLSSHSLEKLPPAAEPAERALRGRDPGALRPHDPAHRPLLRDPGPRRSESPPGPGGDASLLARLFEHPLYRVAVPPLTEEDVLFNVNSDTRLSPKAAENPDWPHAGAEGAEFLSPGEAAVDSYPNWLKFHIGINRYELYSRHNPAIEALLHDLSSQRITSVAMKSGGTQLKLIMTFQNYGQALFKPMKQTREQETPPDFFYFSDYERHNAEIAAFHLDRILDFRRVPPVAGRMVNMTKEIRDVTRDKKLWRTFFISPANNICFYGECSYYCSTEHALCGKPDQIEGSLAAFLPDLSLAKRKTWRNPWRRSYHKRKKAEWEVDPDYCEEVKQTPPYDSSHRILDVMDMTIFDFLMGNMDRHHYETFEKFGNETFIIHLDNGRGFGKYSHDELSILVPLQQCCRIRKSTYLRLQLLAKEEYKLSLLMAESLRGDQVAPVLYQPHLEALDRRLRVVLKAVRDCVERNGLHSVVDDDLDTEHRAASARHDEL
On to B2, for which, in data set [4], the “upward band shift of beta casein on anti-beta-casein Western blot (2 human kinases together, pMOZ702+pMOZ11+pMOZ12)” value is on record as “In lanes containing beta casein coexpressed with 1 human kinase, 2 human kinases, 1 bovine kinase or 2 bovine kinases the bands are shifted upward on the gel relative to the sample transformed with only beta casein”; the “upward band shift of beta casein on anti-beta-casein Western blot (co-expressed with HsFam20C and HsFam20A together, pMOZ702+pMOZ11+pMOZ12)” value is “In lanes containing beta casein coexpressed with 2 human kinases the bands are shifted upward on the gel relative to the sample transformed with only beta casein”.

B3: recombinant H. sapiens Fam20A expressed from pMOZ12 (protein)
chain: QLRPRERPRGCPCTGRASSLARDSAAAASDPGTIVHNFSRTEPRTEPAGGSHSGSSSKLQALFAHPLYNVPEEPPLLGAEDSLLASQEALRYYRRKVARWNRRHKMYREQMNLTSLDPPLQLRLEASWVQFHLGINRHGLYSRSSPVVSKLLQDMRHFPTISADYSQDEKALLGACDCTQIVKPSGVHLKLVLRFSDFGKAMFKPMRQQRDEETPVDFFYFIDFQRHNAEIAAFHLDRILDFRRVPPTVGRIVNVTKEILEVTKNEILQSVFFVSPASNVCFFAKCPYMCKTEYAVCGNPHLLEGSLSAFLPSLNLAPRLSVPNPWIRSYTLAGKEEWEVNPLYCDTVKQIYPYNNSQRLLNVIDMAIFDFLIGNMDRHHYEMFTKFGDDGFLIHLDNARGFGRHSHDEISILSPLSQCCMIKKKTLLHLQLLAQADYRLSDVMRESLLEDQLSPVLTEPHLLALDRRLQTILRTVEGCIVAHGQQSVIVDGPVEQLAPDSGQANLTSHDEL
With B3, in data set [4], the “upward band shift of beta casein on anti-beta-casein Western blot (2 human kinases together, pMOZ702+pMOZ11+pMOZ12)” value is given as “In lanes containing beta casein coexpressed with 1 human kinase, 2 human kinases, 1 bovine kinase or 2 bovine kinases the bands are shifted upward on the gel relative to the sample transformed with only beta casein”; the “upward band shift of beta casein on anti-beta-casein Western blot (co-expressed with HsFam20C and HsFam20A together, pMOZ702+pMOZ11+pMOZ12)” value was “In lanes containing beta casein coexpressed with 2 human kinases the bands are shifted upward on the gel relative to the sample transformed with only beta casein”.

B4: recombinant B. taurus Fam20C expressed from pMOZ14 (enzyme, from a related filing)
chain: MLLPKLERSAARPSGEPGCSCAQPAAEAAAPGWAQARGHPGGELEAAASAAGDAGWPNKHTLRILQDFSSDPSSNLTSHSLEKLPPAAEAAEGAPPGQDPGVRRPPDPAHRPLPRDPGPRGPVLPPGLSGDGSLLTRLFQHPLYQVPIPPLTEGDVLFNVNSDIRFNPKAATAENPDWPHEGPEDEFLPTGEAAVDSYPNWLKFHIGINRYELYSRHNPAVGALLQDLGTQKITSVAMKSGGTQLKLIMTFQNYGQALFKPMKQTREQETPPDFFYFSDYERHNAEIAAFHLDRILDFRRVPPVAGRLVNMTKEIRDVTRDKKLWRTFFISPANNVCFYGECSYYCSTEHALCGKPDQIEGSLAAFLPDLALAKRKTWRNPWRRSYHKRKKAEWEVDPDYCEEVRQTPPYDSSHRLLDVMDMTIFDFLMGNMDRHHYETFEKFGNETFIIHLDNGRGFGKHSHDELSILVPLQQCCRIRRSTYLRLQLLAQEEHRLSLLMAEALRADRVAPVLFQPHLEALDRRLRIVLRAVGDCVEKDGLHSVVEDDLGPEHRAAAGRHDEL
Turning to B4, the “upward band shift of beta casein on anti-beta-casein Western blot (2 bovine kinases together, pMOZ702+pMOZ14+pMOZ15)” value in data set [5] is listed as “In lanes containing beta casein coexpressed with 1 human kinase, 2 human kinases, 1 bovine kinase or 2 bovine kinases the bands are shifted upward on the gel relative to the sample transformed with only beta casein”.

B5: recombinant B. taurus Fam20A expressed from pMOZ15 (enzyme, from a related filing)
chain: MHVSSHLGPRVRSRLQPRERPLGCPCARRAASPAPGPAPSAPRRVEPSGGGDPGSKLRALFAHPLYNEPEEPPLLGPEDSLLAGPEALRYYRRKVARWNRRRKMYKEQLNLTSPEPPVQLRQEASWVQFHLGINRHGLYPRSSPVVSKLLQDMRHFPTISADYSQDEKALLGACDCSQIVKPSGVHLKLVLRFSDFGKAMFKPMRQQRDEETPEDFFYFIDFQRHNAEIAAFHLDRILDFRRVPPTVGRLVNVTREILEVTRNEILQSVFFVSPANNVCFFAKCPYMCKTEYAVCGSPHLLEGSLSAFLPSLNLAPRFSMPSPWIRSYSLAGREEWEVNPLYCEAVKQAYPHNSSSRLLNIIDMAIFDFLIGNMDRHHYEMFTKFGEDGFLIHLDNARGFGRHSHDEVSILAPLFQCCRIKRKTLLHLQLLAQADYRLSDVMRESLLEDQLSPVLTEPHLLALDRRLQTVLRTVQDCIEAHGEQSVVADGPVGQWAPDSSRANATSHDEL
For B5, the “upward band shift of beta casein on anti-beta-casein Western blot (2 bovine kinases together, pMOZ702+pMOZ14+pMOZ15)” value in data set [5] is “In lanes containing beta casein coexpressed with 1 human kinase, 2 human kinases, 1 bovine kinase or 2 bovine kinases the bands are shifted upward on the gel relative to the sample transformed with only beta casein”.
